From patent US7256256B1, “CDK4 binding peptide” (United States of America as represented by the Secretary, …, priority 1999, dated 2007) come the findings set out here.

For one experiment, the system named is 10T1/2 cells. Kind of experiment: BrdU incorporation growth arrest assay in transfected 10T1/2 cells. To be noted: for growth inhibitory activity (BrdU positive cells): 10T1/2 cells, 20% fetal calf serum, one hour BrdU pulse, domains with NLS in pCDNA3 or GST-pCEFL. Format: cell-based, mouse. The procedure: 10T1/2 cells in growth medium were cotransfected with plasmids expressing full-sized MyoD(CMD1) or the indicated domains, either as GST fusions in GST-pCEFL or as subclones in pCDNA3, along with a lacZ expression construct, pCH110, to mark transfected cells. The various domains were targeted to the nucleus with a nuclear tag in the absence of an existing NLS.
Cultures were maintained in 20% fetal calf serum. 72 hours after transfection cultures were refed with the same medium and 12 hours later they were given a one hour pulse with BrdU (10 μM) prior to fixation, as previously described by Crescenzi et al., PNAS USA 1990 87(21):8442–6; and Sorrentino et al., Nature, 1990 345(6278):813–5. Cells were then reacted with rabbit anti-BrdU antibody (Jackson labs) and Xgal.
A general note: Uptake of a labelled nucleoside into DNA is a usual measure of proliferation.

In the next experiment the test system is C2C12 myoblasts. Kind of experiment: RB phosphorylation and growth inhibition in cotransfected C2C12 myoblasts. In kind it is cell-based, mouse. The source says:
C2C12 myoblasts were cotransfected with a GST-pCEFL RB expression plasmid (RB aa 767–928) and pCDNA3 expression plasmids for full-sized or the C-terminus of MyoD(CMD1). GST-RB was recovered from the cells using methods known to those of skill in the art. The samples were adjusted for equal levels GST protein and loaded on SDS-PAGE gels for western analysis by phosphoserine 780 and 795-specific antibodies.

In experiment [1] the target is T1, CDK4 (Mus musculus, UniProt P30285).
T1 sequence (P30285 1-303): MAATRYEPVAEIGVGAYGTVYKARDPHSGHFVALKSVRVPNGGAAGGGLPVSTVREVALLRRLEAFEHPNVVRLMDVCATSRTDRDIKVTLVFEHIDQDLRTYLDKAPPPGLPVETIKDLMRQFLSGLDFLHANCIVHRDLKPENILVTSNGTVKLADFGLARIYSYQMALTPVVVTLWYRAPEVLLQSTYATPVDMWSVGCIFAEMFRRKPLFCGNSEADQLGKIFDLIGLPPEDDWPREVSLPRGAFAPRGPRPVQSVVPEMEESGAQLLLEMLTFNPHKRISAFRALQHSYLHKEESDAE
Kind of experiment: GST fusion pull-down binding assay with CDK4 from Sf9 cell extracts, anti-CDK4 immunoblot. To be noted: GST fusion protein on glutathione agarose; CDK4 from baculovirus infected Sf9 cell extracts. Also on record: made in house; host or cells: Sf9 insect cells, baculovirus. On the procedure: The Sf9 cell extract was incubated with agarasoe bound with either glutathione transferase (GST) alone, or GST fusion proteins encoding one of the four different vertebrate myogenic factors from chicken: CMD1 (MyoD), Ch-myogenin, Ch-myf5 an Ch-mrf4 using methods known to those of skill in the art. Any GST complexes formed were recovered on glutathione-Sepharose beads. The recovered GST complexes were then washed, heated in sample buffer and loaded on an SDS-PAGE gel.
The gel was then analyzed by immunoblot with anti-CDK4 affinity purified rabbit polyclonal antibody on HyBond ECL (Amersham). The anti-CKD4 antibody was diluted 1:2,000–5,000. The second antibody was HRP anti-rabbit and was diluted 1:10,000 (Pierce cat. no. 31460). The signal was detected using SuperSignal Ultra Reagent (Pierce cat. no. 34075).
Proteins were expressed in E. coli strain BL21 (DE3) and purified as described by Shirakata et al., Genes Dev. 1993 7(12A):2456–70. The MyoD-GST fusion proteins were bound to glutathione agaraose.
The binding experiments were performed with CDK4 produced in the baculovirus system (Kato et al., Genes Dev. 1993 7(3):331–42) essentially as described by Kaelin et al., Cell 1991 64(3):521–32.
Deletion mapping of the MyoD (CMD1) carboxy terminus narrowed the CDK4-binding region to a maximum of fifteen amino acids between residues 189–203, well outside the bHLH domain (FIG. 10b, lanes 4 and 5). To confirm that these fifteen amino acids bound CDK4, the fifteen amino acid peptide was joined to glutathione transferase and tested for its ability to bind the CDK4 from Sf9 cell extracts.
For orientation: Immunoblotting shows a protein as a band on a membrane.

The target of the next experiment is T2, CDK4 and cyclin D1 (Mus musculus, UniProt P30285).
T2 construct: made in house; host or cells: Sf9 insect cells coinfected with baculovirus stocks (from C. J. Sherr)
Kind of experiment: In vitro CDK4 kinase assay on GST-RB, Western blot with phosphoserine 780/795 antibodies. Format: biochemical. To be noted: proteins added in two-fold increments from 75 ng to 300 ng; phosphoserine 780 antibody (identical with 795). On the procedure:
Active CDK4 was produced in Sf9 cells coinfected with baculovirus stocks encoding CDK4 and cyclin D1 (from C. J. Sherr).
The kinase assay was performed essentially as described by Kato, et al., Genes Dev, (1993), 7(3):331–42. The CDK4-specific kinase inhibitor p16 (from D. Beach, [as described in Serrano, et al., Nature, (1993), 366(6456): 704–7]) was used as a GST-p16 fusion added to the kinase reaction. The GST-RB fusion (767–928) was used as a kinase target as previously described Kato, et al., Genes Dev, (1993), 7(3):331–42.
To test for kinase inhibition, the various proteins and protein domains were added to the reaction in two-fold increments from 75 ng to 300 ng. […] For the GST constructs, total protein concentration was kept constant in the kinase reaction by adding GST protein. After the assay the total reaction was run on SDS PAGE gels and analyzed by Western blot analysis. Specific phosphorylation of RB was measured with rabbit polyclonal antibodies to RB phosphoserines 780 or 795 (New England Biolabs).

The target in experiment [2] is T1, CDK4. Kind of experiment: Mammalian two-hybrid luciferase reporter assay with vp16-CDK4 in 10T1/2 fibroblasts. Format: cell-based. To be noted: average of three experiments. The source says: The interaction between MyoD and CDK4 in vivo was examined using a mammalian version of the yeast two hybrid system described by Finkel et al., (1993) J Biol Chem 268, 5–8.
MyoD and myogenin (MGN) were each cloned into the gal4 DNA-binding domain vector, pM. CDK4 was inserted into the vp16 activation domain plasmid, pVP16 using methods known to those of skill in the art.
10T1/2 fibroblasts (3×10^5 cells per 60 mm dish or multiwell plate) grown in DMEM with either 10% fetal calf serum were co-transfected with either gal4-MyoD or gal4-MGN along with vp16-CDK4 and a luciferase reporter using Fugene-6 (Boehringer-Mannheim) according to the manufacturer's directions. 1 μg gal4 luciferase reporter, 2 μg each of the gal4 (pM vector, Clonetech) and vp16 (pvp16 vector, Clonetech) constructs, and 300 ng of the beta galactosidase reporter pCH110 (Pharmacia), a total of 5.3 μg DNA, were used in each transfection. The pSV2-beta galactosidase reporter was used to normalize transfection efficiencies.
After 24–36 hours, if required, cells were placed in 2% horse serum plus insulin (10 μg/ml) to induce differentiation and destabilize cyclin D1. […]
24–48 hours after transfection, the luciferase reporter assay was performed according to the manufacturer's directions (Promega, cat. no. E4030) and measured in a Victor 1420 Multilabel Counter. […]

Experiment [3] concerns CDK4 target sites, serines 780 and 795 of RB. Kind of experiment: Phosphorylation of cotransfected GST-RB target in 10T1/2 cells, Western blot. Format: cell-based, mouse. To be noted: 48 hours after transfection, nuclear extracts. The procedure:
The inhibitory activity of the fifteen amino acid CDK4 binding peptide on RB phosphorylation in cells was examined by fusing the fifteen amino acid CDK4-binding peptide of MyoD with a nuclear localization tag to the carboxy terminus of GFP and used in the same transfection protocol with GST-RB.
10T1/2 cells were cotransfected with a GST-RB target (amino acids 767–928) containing a nuclear localization tag, and either MyoD(CMD1) or the carboxy terminus of MyoD with an NLS.
48 hours after transfection, nuclear extracts of the 10T1/2 cells were prepared. The nuclear extracts were passed over glutathione agaraose to capture the GST-RB target.
Western blot analysis of the captured GST-RB target was performed with phosphoserine specific antibodies to the CDK4 target sites, serines 780 and 795. Gel loadings for the phosphoserine antibody analysis were adjusted to the same amount of GST-RB target protein by preliminary western analysis of the extracts (FIG. 13).

T2 sequence (P25322 whole entry partner, one chain of several): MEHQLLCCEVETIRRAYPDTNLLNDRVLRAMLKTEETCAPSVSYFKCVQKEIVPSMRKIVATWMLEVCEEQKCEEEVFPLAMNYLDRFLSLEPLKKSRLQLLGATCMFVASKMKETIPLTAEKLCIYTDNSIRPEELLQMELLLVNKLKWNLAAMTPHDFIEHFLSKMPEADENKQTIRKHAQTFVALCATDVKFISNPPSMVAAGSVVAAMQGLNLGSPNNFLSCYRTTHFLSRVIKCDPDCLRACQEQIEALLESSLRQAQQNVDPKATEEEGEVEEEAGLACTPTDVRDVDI

In the case of “fifteen amino acid CDK4-binding peptide: amino acids 189–203 of chicken MyoD (CMD1), SEQ ID NO: 1; tested as GST fusion, with NLS in cells”, the “growth inhibitory activity (BrdU positive cells)” value (“growth inhibitory activity” below) with 10T1/2 cells is on record as “as potent as full-sized MyoD(CMD1) in growth inhibitory activity”. Besides, the “growth inhibitory effect when the peptide further includes nuclear localization signal (NLS)” value with 10T1/2 cells (data not shown) is “enhanced”. In addition, in the experiment with C2C12 myoblasts, the “CDK4 kinase activity and cell growth when expressed in cell nuclei” value was “inhibits CDK4 kinase activity and cell growth”. The “binding to CDK4” value with CDK4 [1] was “bound CDK4 as efficiently as full-sized MyoD (CMD1)”. Besides, the “inhibition of CDK4-dependent phosphorylation of RB (GST-RB) in vitro” value (shortened to “inhibition”) in the experiment with CDK4 and cyclin D1 was “inhibit”.

B1: bHLH domain of MyoD(CMD1): amino acids 93–153 of CMD1 (protein, UniProt P16075 93-153, looked up, fragment)
chain: KRKTTNADRRKAATMRERRRLSKVNEAFETLKRCTSTNPNQRLPKVEILRNAIRYIESLQA
As to B1, the “growth inhibitory activity” value in the experiment on 10T1/2 cells is “effective at inhibiting cell growth”. The “inhibition” value in the experiment with CDK4 and cyclin D1 is reported as “neither the N-terminus (amino acids 1–92) nor the bHLH domain of MyoD(CMD1) inhibited CDK4 activity”.

B2: full-length MyoD(CMD1): full-sized chicken MyoD (CMD1), muscle specific bHLH transcription factor; used as GST, his-tag or gal4 constructs (protein, UniProt P16075 1-298, looked up)
chain: MDLLGPMEMTEGSLCSFTAADDFYDDPCFNTSDMHFFEDLDPRLVHVGGLLKPEEHPHTRAPPREPTEEEHVRAPSGHHQAGRCLLWACKACKRKTTNADRRKAATMRERRRLSKVNEAFETLKRCTSTNPNQRLPKVEILRNAIRYIESLQALLREQEDAYYPVLEHYSGESDASSPRSNCSDGMMEYSGPPCSSRRRNSYDSSYYTESPNDPKHGKSSVVSSLDCLSSIVERISTDNSTCPILPPAEAVAEGSPCSPQEGGNLSDSGAQIPSPTNCTPLPQESSSSSSSNPIYQVL
modifications: full-length GST, His or gal4 tagged
notes: full-sized chicken MyoD (CMD1), muscle specific bHLH transcription factor; used as GST, his-tag or gal4 constructs
On to B2, for which the “growth inhibitory activity” value with 10T1/2 cells is listed as “showed growth inhibitory activity”. Further, the “binding to CDK4” value in the experiment with CDK4 [1] is on record as “binds specifically”. Also, the “vp16 CDK4-dependent luciferase reporter activity” value in the experiment with CDK4 [2] was “four-fold increase”. Besides, the “phosphorylation of serines 780 and 795 on cotransfected RB target protein” value in experiment [3] is “reduced the phosphorylation of serines 780 and 795”. In addition, in the experiment with CDK4 and cyclin D1, the “inhibition” value was “inhibit”.

B3: C-terminus of MyoD(CMD1): amino acids 153–298 of CMD1 (protein, UniProt P16075 153-298, looked up, fragment)
chain: ALLREQEDAYYPVLEHYSGESDASSPRSNCSDGMMEYSGPPCSSRRRNSYDSSYYTESPNDPKHGKSSVVSSLDCLSSIVERISTDNSTCPILPPAEAVAEGSPCSPQEGGNLSDSGAQIPSPTNCTPLPQESSSSSSSNPIYQVL
Take B3: the “binding to CDK4” value in the experiment with CDK4 [1] is on record as “CDK4 bound”. In addition, the “phosphorylation of serines 780 and 795 on cotransfected RB target protein” value in experiment [3] is “reduced the phosphorylation of serines 780 and 795”. Moreover, in the experiment with CDK4 and cyclin D1, the “inhibition” value is “inhibit”.

B4: N-terminus (amino acids 1–92): amino acids 1–92 of CMD1 (protein, UniProt P16075 1-92, looked up, fragment)
chain: MDLLGPMEMTEGSLCSFTAADDFYDDPCFNTSDMHFFEDLDPRLVHVGGLLKPEEHPHTRAPPREPTEEEHVRAPSGHHQAGRCLLWACKAC
As to B4, the “growth inhibitory activity” value in the experiment with 10T1/2 cells is reported as “ineffective in growth inhibition”. Moreover, in the experiment with CDK4 and cyclin D1, the “inhibition” value is listed as “neither the N-terminus (amino acids 1–92) nor the bHLH domain of MyoD(CMD1) inhibited CDK4 activity”.

B5: Myogenin: chicken myogenic factor that does not bind CDK4, used as the control (protein, UniProt P17920 1-227, looked up)
Myogenin: MELFETNPYFFPEQRFYDGENFLGSRLQGYEAAAFPERPEVTLCPESRGALEEKDSTLPEHCPGQCLPWACKICKRKTVSIDRRRAATLREKRRLKKVNEAFEALKRSTLLNPNQRLPKVEILRSAIQYIERLQSLLSSLNQQEREQRELRYRPAAPQPAAPSECGSGSSSCSPEWSTQLEFGTNPADHLLSDDQAEDRNLHSLSSIVESIAVEDVAVTFPEERVQN
modifications: gal4 fusion
In the case of B5, the “binding to CDK4” value with CDK4 [1] was “does not bind to CDK4”. The “inhibition” value in the experiment with CDK4 and cyclin D1 was “no inhibitory effect”.
